In a protein production outcome set (Wang et al. 2014):

Experiment: label from the status in PepcDB records
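Note: failed if final PepcDB status was selected cloned or expressed and not failed if soluble or beyond.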

Sequence	protein production
MKKTFNLVATAAAGIEAVVGKELRNLGLDCQVENGRVLFKGNIETIAKSNLWLRSADRIKIVVGEFPARTFEELFQGVYALDWENYLPLGCQFPVAKAKSVKSKLHNEPSIQGITKKAIVKKLQHYFHRPDSVPLPENGPEFKIEISLLKDQARVMIDTTGPSLFKRGYRTEKGGAPIKENMAAAIILLSNWFPDKPFVDPTCGSGTFCIEAAMIGMNIAPGFNRDFAFEEWPWVDEALVTRVRNEADEQADYDIQLDISGFDFDGRMVEIARKNAREVGLEDVVKLKQMRLQDFKTNKINGVLISNPPYGERLLDDKAVDILYNEMGETFAPLKTWSQFILTNDTDFEQKFGRKADKKRKLYNGSLKVDLYQFYGQRVKRVLR	not failed
MSHAVANKTETEAAPNSSLKQSAAPQPANSHDAKLLNGTLARTNGLTHAASVATSSSGSYGSSSAAGSNAGSGGPTSSASLSIAAGVASSTALPLPPSSNGLQMPYERFRADDTSYVPIAQFYAGRSVFITGGTGFMGKVLVEKLLRSCPEIRNIYLLIRPKRGQEVSARLTELLNAPLFESLRQEKPKELSKVIPISGDITSEELGISEKDQNLLCRNVSVVFHSAATVKFDEKLKLSVTINMLGTKRLVELCHRMLSLDALIHVSTAYCNCDRTDVSEVIYAPPYNPDDIISLINWLPEDILDQLTPRLIGKRPNTYTFTKALAEHMLLKEAGNLPVAIVRPSIVTASLNEPFAGWVDNFNGPTGLVSALAKGMFRTMMCEKNYVADMVPVDIVINLMIAAAWRTATRKSNNLLIYNCCTGQRNPIIWSEFVKHAMTSVRKHPLEGCLWYPTGDLRMNRPMNTLNCIAKHFLPAYILDGVARIMGKKPFVVNVQNKIAKAVECLEYFATRQWRFKDDNVHALLHTLSPKDREIFVFDVRHINWDKYVERYVLGFREFLFKQRPESLPASRKRMLRLYYLHQLTKLVAVLLTWRFLMSRSKRLNDLWSSFLENALRMARLIPFL	failed
LDPGLQPGQFSADEAGAQLFAQSYQSSAEQVLFQSVAASWAHDTNITAENARRQEEAALLSQEFAEAWGQKAKELYEPIWQQFTDPQLRRIIGAVRTLGSANLPLAKRQQYNALLSQMSRIYSTAKVCLPQKTATCWSLDPDLTNILASSRSYAMLLFAWEGWHNAAGIPLKPLYEDFTALSNEAYKQDGFTDTGAYWRSWYNSPTFEDDLEHLYQQLEPLYLNLHAFVRRALHRRYGDRYINLRGPIPAHLLGDMWAQSWENIYDMVVPFPDKPNLDVTSTMLQQGWQATHMFRVAEEFFTSLELSPMPPEFWEGSMLEKPADGREVVCHASAWDFYNRKDFRIKQCTRVTMDQLSTVHHEMGHIQYYLQYKDLPVSLRRGANPGFHEAIGDVLALSVSTPEHLHKIGLLDRVTNDTESDINYLLKMALEKIAFLPFGYLVDQWRWGVFSGRTPPSRYNFDWWYLRTKYQGICPPVTRNETHFDAGAKFHVPNVTPYIRYFVSFVLQFQFHEALCKEAGYEGPLHQCDIYRSTKAGAKLRKVLRAGSSRPWQEVLKDMVGLDALDAQPLLKYFQLVTQWLQEQNQQNGEVLGWPEYQWHPPLPDNYPEGIDLVTDEAEASKFVEEYDL	not failed
MVWLWCVLHLLVAALGTWGLRRYALHRRLLDHPGERRSHVVATPRGGGMAIVAAILLGCVAACALWPTSRLTVCWFAAGLVAVAGVGWWDDHRPLSARLRFSIHLAASVALGALVWHGTGSVWDGVLTAAASVMLINVWNFMDGINGLASTQAALAALGFSLVAPVGWSWAGLAVAAACLGFVPFNFPRARIFMGDGGSGALGYVLAALLALNVAGGQVSWWISWLPLTAFLVDAGFTLLARMLSGQRWWEPHAQHVYQRLARRLETHVPVTGVYFAFSLIAVCLYLLIRHDPFWLQVSGALVWGMGATAIWHFLRDGLRNS	failed
MKKNKIGGSQSMFNKVWFRTGIFFIMLFILIKLFMEVHEVFAPIATIIGSVFLPFLISGFLFYICLPFQNILEKWGFPRWASITTIFIGLIVIIAIVVSFIAPIIISNINNLIKQTPSLQKEAEQLINFSLRQMDKLPDDVTHRINKAVKSMGDGATSILSNSVSYITSFISTVFLLIMVPFFLIYMLKDHEKFIPAIGKFFKGERKVFVVDLLKDLNFTLKSYIQGQVTVSIILGIILYIGYTIIGLPYTPLLVLFAGVANLIPFLGPWLSFAPAAILGIIDGPSTFIWVCVVTLIAQQLEGNVITPNVMGKSLSIHPLTIIVVILAAGDLGGFTLILVAVPLYAVIKTLVSNIFKYRQRIVDKANSNVKD	failed
MKPVIQTFLRAAAVAGLALLAGCAGVSTTQSGAIGVDRTQYMSSLVPEQALVQEAGQQYAEIVQEARAKGLLDRDPAQLSRVRAISQRLIAQTGVFRADAANWPWEVHVLSVDEVNAWCMPGGKIAVYTGLLAHIKPTDDELAAVLGHEIAHALREHARERVSQQMATSIGLSVLSMATGSPGASDLGGKLTEVMFTLPNSRTHETEADRMGVELAARAGFDPRAAVTLWQKMGAADGNAPPEFLSTHPSASTRIGELQQALQKVLPLYEQARGQAAKLEHHHHHH	not failed
MEYKPMPYPIIDSHCHLDFPKFNPDREEAIQRARKAGVVGMVNSGISLKGNRISLELAEKNEDIHAALGLSPDIGREGSDKDINAILAQIEANAGKAVAIGEAGLDFQDCKTDEERRRQTASFKKVIELAKNLEKPLVVHARMAEAEVLELARDVDTVIYHCYSGSVETMKEIVDAGYYISLATLVCFSEHHQTLAAEVPPENLLLETDSPFLSPRRGRNEPAFIVDSIPVVAEYKEMEPAEIAKFATENARRVFKILEHHHHHH	failed
MMEQALQTITLSCEWSEERQCFWLSSSSPATSWAPLVFAWHEETFYGTLIDSVIVNGREVVQLSPWQALTFFASRPSISFVAIEWKDEFTAQLETWARQIWDDLRERRFRPDFAAWKERRSTLWSEAQHTRWLGLDADPHPFITTWRSLAIADWLSRDPELRDIWQEIIKDYPAILARNDQWISGEDDWLEQIGWLGERPLFTVGLRLVEPPEDGDSWTLETVLIALDDSVVVPVDEIPRAWRPYEQSIARAIRRIETIIPWLGGNGELRNELSDDEAWLFLSEESLKLTEAGVRLLLPDWWHNIRQAQLSIKAKLSPSVHAESLFGLERLSDFDWRVATNGIELTEEEFAAIAEQKRRLIRLRGQWIALDPALVRRAQTLMEKAKQEGVPIHEIVAQTLLAEANARDEATDEHIPIHIDVQNQFRAFIRQLHNIDELPTAVVPPSFHGTLRPYQQRGVDWLAFLRRFGFGACLADDMGLGKTVQLLAYLAYVKETEHPDTPALLICPTSVIGNWQKECARFTPELRVYTHHGPNRAKHEAFLQTAGRADLVITSYSLAHLDGDDLKQLHWHTVCLDEAQNIKNAQTKQARAIRRLRAKHKIALSGTPVENRLNELWSIFHFLNPGYLGSATEFERRFAGPIEKEGDAHKKAALQALIRPFLLRRTKTDEAVALNLPDKLEQKEYCPLTAEQAALYEQLVNDTLERAKAASPFARRGLILQMLNGIKQICNHPALYLKERSPRQLVERSHKLEKLVELVEQIRANDESCLIFTQYVRMGEMIQELLSDLFDEPVLFLNGSVPKPTRDRMVDEFQARKAPIFLLSLKAGGTGLNLTAANHVIHFDRWWNPAVENQATDRAYRIGQTKFVHVHKLITTGTIEEKIDEMLEQKQALADVITEGETWITELSDDELRDLLTLSAAAKGGA	failed
MPRNNKTSLIQKIASQAYATFTNCSSSAIEDNNKVFLEHQADLVALLSDIRAADLKIAPPTKVSTSSPSVPPVTYMHICETDVFSMGVFLLKSGASIPLHDHPGMHGMLKVLYGKVSIRCYDKLDKAESDTERHFDPPLLAFQGDDVRRAALRSSGQFSELSGPCVLSPFKDNLHEIDAVDGAAAFLDILAPPYDPDDGRDCHYYRVLQTAGKKSEQSGDDEAWLLEIPQPDDFWCGGEPYPGPEVTI	not failed
MAVSHSVKERTISENSLIILLQGLQGRVTTVDLRDESVAHGRIDNVDAFMNIRLAKVTYTDRWGHQVKLDDLFVTGPNVRYVHIPDDVNITSTIEQQLQIIHRVRNFGGKGQGRWEFPPKNCK	failed
MDIEERINLVLKKPTEEVLTVENLRHLFEIGAPLQHYIGFEISGYIHLGTGLMAGAKIADFQKAGIKTRVFLADWHSWINDKLGGDLEVIQEVALKYFKVGMEKSIEVMGGDPKKVEFVLASEILEKGDYWQTVIDISKNVTLSRVMRSITIMGRQMGEAIDFAKLIYPMMQVADIFYQGVTIAHAGMDQRKAHVIAIEVAQKLRYHPIVHEGEKLKPVAVHHHLLLGLQEPPKWPIESEEEFKEIKAQMKMSKSKPYSAVFIHDSPEEIRQKLRKAFCPAREVRYNPVLDWVEYIIFREEPTEFTVHRPAKFGGDVTYTTFEELKRDFAEGKLHPLDLKNAVAEYLINLLEPIRRYFEKHPEPLELMRSVKITR	not failed
RFRVTPYHGNLLGDHERLAAFREAISSRARGLTYDLGAGSGILSFFASEYADRVIAIERDPKIAACAGENLSGLDNVSVVNEDALHYEFSAADTIICEMLDTALIDEEQVPVLRRALKFLRNDGTVIPQAVF	failed
MQKGFLLGLFAYATFSMGDATIKSLGSQISVFEIGFFSILFSGIFIFFSKPREERWREFWRMSRPFAVHGRAISGLFAGIFGIYAFTTIPLAEAYALIFLSPLFVTVLSAVVLKENIGPWRWAAVLAGIVGVILVVRPGFKTLELGHIAAIGVAFLAAMTIVLLRSLAGKEKRTSIMGVLLIYGLTFNGIASIPDFVMPNLHQLLAFAFIGLCTATGQITLLVATRIAPASQIAPSHYSQILWAVAIGMTFFHEYPDAIAALGLAVIAASGLLTMIREKVRLGTVRWNPFFRNRL	failed
MFRPPSIKDAKKIWELIGRCKPLDINSPYCYALIGRDFFDSSIVYEEEGRIKGVVIGYLRPRAPERLFVWQVAIEAKSRGKGIAKRAIEAILKNLERKGHCIQAIEATYTPSNLASKALFHALGREWKVVWIEENFLEGALLSAQEAHEEEWLITLPFSSEALGVQGANHANL	failed
AIATYPTNLEIIGGQGGSSFSFTGENNGASLEKIWVWVGGWQIKAVRAWLSDGRDETFGVPSGSHQEYVFTPGECFTSLSLWGNGAGTRLGAIKFKTNKGGEFFAHMTSWGLKTEYPMDVGSGYCLGIVGRGGSDIDCMGFMFLNAVQSTVLTNVNYPTINQLIPKVATEEIKSVSFENKTSVKQEQKVETSKKVIKTSSWSMTKSFSSTFSVEVSAGIPEIAEVSTGFSISFGVESTHSLEQTDEKNETLTTTVEVPPKKKVDVHITIGRASFDLPYTGTVKITCKNGSVLQYETKGQYKGVAYTDIKVNTVEKDL	not failed
MTPDIRLRVDGRAIVLLTAGCAPGLCPAFAFWACKASAPGRSIAVTPMRSEQQQTDQHADTLHPYACECHAAHLPSSRKKARMRASLFKFGLNLWRPFLFAGIHVTVLSEDYRFARVELRHRPWNRNYVGTHFGGSLFAMTDPFWMLLTIHNLGRDYYVWDKAGNIEFVKPGRGTLTADFVIDDSLLAQLRQATASGEKHLRWFENEVHHRDGEVVARVRKQLYVKRKPAR	failed
MPTVFIFLTAVYAGLGAFAWHCQQQGRGRDYPWKTELPVLGAALTVHGAALLMPVIQDKIIIMGFGYSGSLIVWMMLFIYFAGSFFYPLRGVQLLLYPCAALMLLSGLVFPGKFSGYEITDFPFMLHIGTSLLAYGLFGIATLLSVLSLLLHRSLHRRNFSKLAGFLPSLLSLEKLMFQAMWAGFILLTYSVVSGTFFAEAVFGKPMTFTHKTVFGILSWLIYGGLLLKHSMTAWRGKKAAVWTIIGFVSLMIAYMGSKFVLEIILKR	failed
SSDASKVTSKGAGLSKAFVGQKSSFLVDCSKAGSNMLLIGVHGPTTPCEEVSMKHVGNQQYNVTYVVKERGDYVLAVKWGEEHIPGSPFHVTVP	not failed
MGNGLAKCLIDGDTETFWHAKWQGGSDPLPYDIVIDMKQNIQIAQVELLPRGRGSNNPIKVVEFAASEDNVNWTPIGRFGFTNQDAALEYYVKSIKARYIRLTIPDDGGNSTVAAIRELDVKGTIINLEHHHHHH	failed
